Test results taken from patent US20180371091A1 (JOUNCE THERAPEUTICS, published 2018).
Changes are numbered by the printed parent chain.

T1: mouse ICOS-hFc (homodimeric, bivalent) (mouse; human, UniProt Q9WVS0 21-142)
T1 construct: also called mICOS-hFc; mouse ICOS-Fc; not shown: human IgG1 Fc (IgG1 backbone)
T1 sequence: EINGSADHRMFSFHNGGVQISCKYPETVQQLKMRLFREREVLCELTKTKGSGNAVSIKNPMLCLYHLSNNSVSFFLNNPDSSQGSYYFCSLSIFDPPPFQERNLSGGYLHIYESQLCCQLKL

T2: mouse ICOS (full length, on cells) (mouse, UniProt Q9WVS0 21-200)
T2 construct: also called CHO-mICOS; mouse ICOS+ CHO cells
T2 sequence: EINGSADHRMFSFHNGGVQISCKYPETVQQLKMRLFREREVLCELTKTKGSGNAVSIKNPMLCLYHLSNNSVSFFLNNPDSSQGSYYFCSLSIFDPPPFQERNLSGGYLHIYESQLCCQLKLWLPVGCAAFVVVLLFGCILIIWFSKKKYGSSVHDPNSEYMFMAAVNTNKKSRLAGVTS

T3: cynomolgus ICOS-Fc (homodimeric, bivalent) (cynomolgus monkey, UniProt Q9Y6W8 21-140 (human entry))
T3 construct: also called cynoICOS-Fc; cyno ICOS-Fc; not shown: human IgG1 Fc (IgG1 backbone)
T3 chain: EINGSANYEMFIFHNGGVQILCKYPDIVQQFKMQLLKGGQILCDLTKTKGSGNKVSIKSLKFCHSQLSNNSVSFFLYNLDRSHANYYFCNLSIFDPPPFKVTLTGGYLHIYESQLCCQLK

T4: hICOSL-mG2a (human; mouse, UniProt O75144 19-256, limits assumed)
T4 construct: also called hICOSL-mG2a Fc; not shown: mouse IgG2a Fc
T4 sequence (looked up): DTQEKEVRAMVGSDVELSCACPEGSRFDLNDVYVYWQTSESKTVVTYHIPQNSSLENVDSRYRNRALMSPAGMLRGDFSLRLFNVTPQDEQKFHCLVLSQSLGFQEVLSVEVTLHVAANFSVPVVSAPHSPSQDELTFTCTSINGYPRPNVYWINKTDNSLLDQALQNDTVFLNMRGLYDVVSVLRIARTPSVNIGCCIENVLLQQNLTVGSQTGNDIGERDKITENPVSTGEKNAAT

T5: monovalent, heterodimeric human ICOS-Fc (human)
T5 construct: Make-up of the heterodimer is not described; also called Monomeric hICOS; monomeric form of human ICOS; not shown: The human IgG1 Fc fused to ICOS, and the partner Fc chain of the heterodimer
T5 chain: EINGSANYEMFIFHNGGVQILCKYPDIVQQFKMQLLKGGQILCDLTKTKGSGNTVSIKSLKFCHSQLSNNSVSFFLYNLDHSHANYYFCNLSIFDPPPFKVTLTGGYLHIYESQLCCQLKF

T6: mouse CD28 Fc fusion (dimeric) (mouse, UniProt P31041 20-150)
T6 construct: not shown: Fc part not described
T6 sequence (looked up): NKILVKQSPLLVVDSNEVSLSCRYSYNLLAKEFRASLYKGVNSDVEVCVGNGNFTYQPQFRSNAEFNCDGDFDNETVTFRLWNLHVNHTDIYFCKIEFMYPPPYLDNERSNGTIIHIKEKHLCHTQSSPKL

T7: mouse PD-1 Fc fusion (dimeric) (mouse, UniProt Q02242 25-167)
T7 construct: not shown: Fc part not described
T7 sequence (looked up): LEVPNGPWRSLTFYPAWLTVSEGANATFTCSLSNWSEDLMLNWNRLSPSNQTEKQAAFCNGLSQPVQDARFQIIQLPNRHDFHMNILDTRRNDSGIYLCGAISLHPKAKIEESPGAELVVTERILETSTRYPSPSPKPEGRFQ

T8: human BTLA Fc fusion (dimeric) (human, UniProt Q7Z6A9 31-157)
T8 construct: not shown: Fc part not described
T8 sequence (looked up): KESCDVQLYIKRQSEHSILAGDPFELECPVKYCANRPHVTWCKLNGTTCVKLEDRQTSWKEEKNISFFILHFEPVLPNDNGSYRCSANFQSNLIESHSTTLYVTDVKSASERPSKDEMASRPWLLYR

T9: human CTLA-4 Fc fusion (dimeric) (human, UniProt P16410 37-162)
T9 construct: not shown: Fc part not described
T9 sequence (looked up): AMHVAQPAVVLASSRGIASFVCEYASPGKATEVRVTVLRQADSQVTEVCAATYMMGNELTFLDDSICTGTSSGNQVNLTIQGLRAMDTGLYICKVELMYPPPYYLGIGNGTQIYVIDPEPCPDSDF

T10: mouse BTLA Fc fusion (dimeric) (mouse, UniProt Q7TSA3 30-183)
T10 construct: not shown: Fc part not described
T10 sequence (looked up): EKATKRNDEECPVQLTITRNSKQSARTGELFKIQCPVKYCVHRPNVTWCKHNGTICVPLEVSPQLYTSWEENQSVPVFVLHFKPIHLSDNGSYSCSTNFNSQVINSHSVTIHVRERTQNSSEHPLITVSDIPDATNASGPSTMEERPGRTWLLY

B1: 7F12 (antibody, V domains shown)
VH: EVQLVESGGGLVKPGGSLTLSCAASGFTFSDYWMDWVRQGPGKGLEWVGNIDEDGSTTYYAPFVKGRFTISRDNAKKTLYLQMNSVKSEDTATYYCTRWGRYAFDSWGQGTLVTVSS
VL: DIVMTQSPSSLAVSPGDKVTINCKSSQSLLSGNYNYLAWYQQKTGQAPKLLIFYASTRHTGVPDRFMGSGSGTDFSLTINSFQTEDLGDYYCQHHYSTPPTFGPGTKLEIK
notes: Armenian hamster monoclonal tested as IgG; also called hamster anti-ICOS 7F12
B2: 37A10 (antibody, V domains shown)
VH: B1 VH with T19K, G40A, T57I, Y59E, A61S, A75V, K77N, Y102F, A103G
VL: DIVMTQSPSSLAVSAGDRVTINCKSSQSLLSGSFNYLTWYQQKTGQAPKLLIFYASTRHTGVPDRFMGSGSGTDFTLTINSFQTEDLGDYYCHHHYNAPPTFGPGTKLELR
notes: Armenian hamster monoclonal tested as IgG; also called hamster anti-ICOS 37A10
B3: 16G10 (antibody, V domains shown)
VH: EVQLVESGGGLVKPGGSLKLSCAASGFTFSDYWMDWVRQAPGKGLEWVGNIDHDGNIINFAPSVKGRFTISRDNAKNTLYLQMNSVKSEDTATYYCARWGHYAFDSWGQGTLVTVSS
VL: B1 VL with P15A, G32S, N33G, A38I, M67I, S76T, N80T, T98S
notes: Armenian hamster monoclonal tested as IgG; also called hamster anti-ICOS 16G10
B4: 36E10 (antibody, V domains shown)
VH: B1 VH with T19K, G40A, T57I, Y59E, A61S, A75V, K77N, T78I, Y102F
VL: B2 VL with A15P, N35H
notes: Armenian hamster monoclonal tested as IgG; also called hamster anti-ICOS 36E10
B5: human ICOS-hFc (homodimeric, bivalent) (Fc fusion)
chain: T5 chain
notes: also called hICOS-Fc; hICOS-hFc; not shown: human IgG1 Fc (IgG1 backbone)

Target: T1, mouse ICOS-hFc (homodimeric, bivalent)
Experiment: BLI
Procedure: (§1) Cross-reactivity measurements were conducted using BLI technology with antibody panels being screened for binding to human, mouse, and cynomolgus ICOS-Fc fusions (homodimeric, bivalent forms).

| Binder | binding result |
| --- | --- |
| B1 | binds |
| B2 | binds |
| B3 | binds |
| B4 | binds |

Target: T2, mouse ICOS (full length, on cells)
Experiment: flow cytometry on ICOS+ CHO cells
Description: To assess specificity, binding to human ICOS+ CHO cells and mouse ICOS+ CHO cells was individually analyzed by flow cytometry. As a control to screen out pan-reactive antibodies, staining on CHO cells lacking ICOS receptor expression was also examined. All of the selected antibodies bound to human and mouse ICOS+ CHO cells, and not to CHO cells lacking ICOS expression.

| Binder | binding result |
| --- | --- |
| B1 | binds |
| B2 | binds |
| B3 | binds |
| B4 | binds |

Target: B5
Experiment: BLI (Octet RED96), full-length IgG vs homodimeric ICOS-Fc (avid)
Procedure: (§2) Affinity measurements were conducted using Bio-Layer Interferometry (BLI) technology (ForteBio Octet® RED96). The monovalent affinities were generated with IgG versions of the antibodies with monovalent, heterodimeric forms of the ICOS receptor. The avid affinities were generated using full-length IgGs against homodimeric forms of the ICOS receptor.

| Binder | Kd | koff | kon |
| --- | --- | --- | --- |
| B1 | 34.2 pM | 2.3e-05 s⁻¹ | 674000 M⁻¹ s⁻¹ |
| B2 | 34.2 pM | 2.3e-05 s⁻¹ | 674000 M⁻¹ s⁻¹ |
| B3 | < 1 pM | < 1e-07 s⁻¹ | 1.01e+06 M⁻¹ s⁻¹ |
| B4 | < 1 pM | < 1e-07 s⁻¹ | 626000 M⁻¹ s⁻¹ |

Target: T3, cynomolgus ICOS-Fc (homodimeric, …)
Experiment: BLI, bivalent binding to homodimeric ICOS-Fc
Procedure: as §1

| Binder | Kd | koff | kon |
| --- | --- | --- | --- |
| B1 | < 1 pM | < 1e-07 s⁻¹ | 585000 M⁻¹ s⁻¹ |
| B2 | < 1 pM | < 1e-07 s⁻¹ | 712000 M⁻¹ s⁻¹ |
| B3 | < 1 pM | < 1e-07 s⁻¹ | 647000 M⁻¹ s⁻¹ |
| B4 | < 1 pM | < 1e-07 s⁻¹ | 697000 M⁻¹ s⁻¹ |

Target: B5
Experiment: BLI, bivalent binding to homodimeric ICOS-Fc
Procedure: as §1

| Binder | Kd | koff | kon |
| --- | --- | --- | --- |
| B1 | 34.2 pM | 2.3e-05 s⁻¹ | 674000 M⁻¹ s⁻¹ |
| B2 | < 1 pM | < 1e-07 s⁻¹ | 625000 M⁻¹ s⁻¹ |
| B3 | < 1 pM | < 1e-07 s⁻¹ | 626000 M⁻¹ s⁻¹ |
| B4 | < 1 pM | < 1e-07 s⁻¹ | 617000 M⁻¹ s⁻¹ |

Target: T4, hICOSL-mG2a
Experiment: BLI, bivalent binding to homodimeric ICOS-Fc

| Binder | Kd | koff | kon |
| --- | --- | --- | --- |
| B5 | 362 pM | 0.000341 s⁻¹ | 941000 M⁻¹ s⁻¹ |

Target: T5, monovalent, heterodimeric human ICOS-Fc
Experiment: BLI (Octet RED96), IgG vs monovalent heterodimeric ICOS-Fc
Procedure: as §2

| Binder | Kd | koff | kon |
| --- | --- | --- | --- |
| B1 | 13200 pM | 0.00175 s⁻¹ | 133000 M⁻¹ s⁻¹ |
| B2 | 3180 pM | 0.000479 s⁻¹ | 151000 M⁻¹ s⁻¹ |
| B3 | 4370 pM | 0.000712 s⁻¹ | 163000 M⁻¹ s⁻¹ |
| B4 | 1590 pM | 0.000228 s⁻¹ |  |

Target: T6, mouse CD28 Fc fusion (dimeric)
Experiment: binding to dimeric Fc fusions of CD28 family members
Procedure: (§3) To further assess the specificity of the anti-ICOS antibodies, the antibodies were screened for binding to additional members of the CD28 protein family (CD28, BTLA, PD-1 and CTLA-4). […] Specifically, binding to Fc fusions (of CD28, BTLA, PD-1 and CTLA-4) in dimeric forms was evaluated, and no binding was observed. For a subset of the CD28 family members, mouse or human protein was over-expressed on the surface of HEK293 and CHOK1 cells. No binding of antibody above background relative to untransduced parental cells was observed.

| Binder | binding result |
| --- | --- |
| B1 | no binding |
| B2 | no binding |
| B3 | no binding |
| B4 | no binding |

Target: T7, mouse PD-1 Fc fusion (dimeric)
Experiment: as above
Procedure: as §3

| Binder | binding result |
| --- | --- |
| B1 | no binding |
| B2 | no binding |
| B3 | no binding |
| B4 | no binding |

Target: T8, human BTLA Fc fusion (dimeric)
Experiment: as above
Procedure: as §3

| Binder | binding result |
| --- | --- |
| B1 | no binding |
| B2 | no binding |
| B3 | no binding |
| B4 | no binding |

Target: T9, human CTLA-4 Fc fusion (dimeric)
Experiment: as above
Procedure: as §3

| Binder | binding result |
| --- | --- |
| B1 | no binding |
| B2 | no binding |
| B3 | no binding |
| B4 | no binding |

Target: T11, human PD-1 Fc fusion (dimeric) (human, UniProt Q15116 25-167)
T11 construct: not shown: Fc part not described
Experiment: as above
Procedure: as §3

T11 sequence (Q15116 25-167): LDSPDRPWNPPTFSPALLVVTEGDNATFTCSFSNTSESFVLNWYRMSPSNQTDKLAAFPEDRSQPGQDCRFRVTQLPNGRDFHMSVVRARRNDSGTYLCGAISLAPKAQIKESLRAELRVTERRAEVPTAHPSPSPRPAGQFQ

| Binder | binding result |
| --- | --- |
| B1 | no binding |
| B2 | no binding |
| B3 | no binding |
| B4 | no binding |

Target: T12, mouse CTLA-4 Fc fusion (dimeric) (mouse, UniProt P09793 36-162)
T12 construct: not shown: Fc part not described
Experiment: as above
Procedure: as §3

| Binder | binding result |
| --- | --- |
| B1 | no binding |
| B2 | no binding |
| B3 | no binding |
| B4 | no binding |

Target: T10, mouse BTLA Fc fusion (dimeric)
Experiment: as above
Procedure: as §3

| Binder | binding result |
| --- | --- |
| B1 | no binding |
| B2 | no binding |
| B3 | no binding |
| B4 | no binding |

Target: T13, human CD28 Fc fusion (dimeric) (human, UniProt P10747 19-152)
T13 construct: not shown: Fc part not described
Experiment: as above
Procedure: as §3

T13 sequence (P10747 19-152): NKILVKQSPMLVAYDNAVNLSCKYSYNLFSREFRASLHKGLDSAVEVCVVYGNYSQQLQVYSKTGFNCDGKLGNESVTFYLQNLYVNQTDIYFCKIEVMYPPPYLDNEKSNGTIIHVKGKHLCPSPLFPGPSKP

| Binder | binding result |
| --- | --- |
| B1 | no binding |
| B2 | no binding |
| B3 | no binding |
| B4 | no binding |
